Experimental findings from IntAct's records for PubMed 17070805 are described below.

This assay deals with T1, npl4_human NPLOC4 (UniProt Q8TAT6).
T1 sequence: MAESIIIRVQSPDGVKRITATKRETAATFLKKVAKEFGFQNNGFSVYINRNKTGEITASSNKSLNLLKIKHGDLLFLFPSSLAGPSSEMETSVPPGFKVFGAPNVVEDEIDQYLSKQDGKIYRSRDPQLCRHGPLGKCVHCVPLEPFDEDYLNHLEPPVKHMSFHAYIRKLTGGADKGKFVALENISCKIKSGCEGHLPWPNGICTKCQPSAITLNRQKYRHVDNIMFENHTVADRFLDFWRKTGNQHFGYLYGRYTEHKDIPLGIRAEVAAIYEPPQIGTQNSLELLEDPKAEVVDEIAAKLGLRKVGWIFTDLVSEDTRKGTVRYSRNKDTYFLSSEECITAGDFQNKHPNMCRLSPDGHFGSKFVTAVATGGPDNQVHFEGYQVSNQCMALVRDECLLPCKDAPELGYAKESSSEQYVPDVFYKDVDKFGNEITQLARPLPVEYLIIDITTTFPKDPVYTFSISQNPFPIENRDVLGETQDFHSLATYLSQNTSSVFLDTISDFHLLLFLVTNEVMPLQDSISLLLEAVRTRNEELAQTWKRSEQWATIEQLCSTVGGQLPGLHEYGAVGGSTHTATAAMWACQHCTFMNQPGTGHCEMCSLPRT

For the substance “Polyubiquitin-C (Homo sapiens) (from UniProt P0CG48) I44A”, the “effect of a mutation on the interaction” value is “decreasing interaction”.
